Source: patent US20120058906A1 (published 2012)
Values belong to the binder of their own block, whether it stands above or below them.

Tests used:
[1] = target: T1, rHuman Erythropoietin R/Fc Chimera, CF (R&D Systems Cat#963-ER) (human, UniProt P19235 25-250); test: ECL (MSD multi-spot), antigen spotted on plate; Fab 44.1 nM; blank spot 200
T1 construct: Bought reagent; also called EPO R/Fc; Epo R; Fc part of the bought chimera not given
T1 sequence: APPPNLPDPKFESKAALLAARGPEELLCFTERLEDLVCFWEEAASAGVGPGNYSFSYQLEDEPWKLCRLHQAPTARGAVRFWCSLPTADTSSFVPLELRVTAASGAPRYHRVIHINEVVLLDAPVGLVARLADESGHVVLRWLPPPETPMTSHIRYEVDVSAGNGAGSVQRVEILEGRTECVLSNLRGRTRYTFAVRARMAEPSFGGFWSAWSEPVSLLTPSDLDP

[2] = target: T2, Recombinant Human DLL4 (R&D Systems Cat#1506-D4/CF) (human, UniProt Q9NR61 27-524); test: as above
T2 construct: Bought reagent; also called delta-like protein 4

[3] = target: T3, rHuman EGF R/Fc Chimera, CF (R&D Systems Cat#344-ER) (human, UniProt P00533 25-645); test: as above
T3 construct: Bought reagent; also called epidermal growth factor receptor; Fc part of the bought chimera not given

[4] = target: T4, rHuman HGF R/c-MET/Fc Chimera, CF (R&D Systems Cat#358-MT/CF) (human, UniProt P08581 25-932); test: as above
T4 construct: Bought reagent; also called HGF R/Fc; hepatocyte growth factor receptor; Fc part of the bought chimera not given

[5] = target: T5, rHuman IGF-1 sR (IGF-1 sR), CF (R&D Systems Cat#391-GR) (human, UniProt P08069 31-932); test: as above
T5 construct: Bought soluble receptor; also called insulin-like growth factor-1 soluble receptor; IGF-R1

[6] = target: T6, rHuman Erythropoietin R/Fc Chimera, CF (R&D Systems Cat#963-ER) (human, UniProt P19235 25-250); test: ECL (MSD Multi-Spot) binding assay, antigen spotted on plate; Fab 7.5 nM; blank spot 217
T6 construct: Bought Fc chimera; also called EPO R/Fc; Epo R; Fc part of the bought chimera not given
T6 sequence: T1 sequence

[7] = target: T7, Recombinant Human DLL4 (R&D Systems Cat#1506-D4/CF) (human, UniProt Q9NR61 27-524); test: as above
T7 construct: Bought recombinant protein; also called delta-like protein 4; rHuman DLL4

[8] = target: T8, rHuman Notch-1/Fc Chimera, CF (R&D Systems Cat#3647-TK) (human, UniProt P46531 19-526); test: as above
T8 construct: Bought Fc chimera; Fc part of the bought chimera not given

[9] = target: T9, rHuman CD44/Fc Chimera, CF (R&D Systems Cat#3660-CD) (human, UniProt P16070 21-220); test: as above
T9 construct: Bought Fc chimera; Fc part of the bought chimera not given

[10] = target: T10, rHuman P-Cadherin/Fc Chimera, CF (R&D Systems Cat#861-PC) (human, UniProt P22223 108-654); test: as above
T10 construct: Bought Fc chimera; also called CDH3; Fc part of the bought chimera not given

[11] = target: T11, rHuman Notch-1/Fc Chimera, CF (R&D Systems Cat#3647-TK) (human, UniProt P46531 19-526); test: MSD ECL titration, Fab 148.9 nM, blank 218
T11 construct: Bought Fc chimera; Fc part of the bought chimera not given

[12] = target: T12, rHuman CD44/Fc Chimera, CF (R&D Systems Cat#3660-CD) (human, UniProt P16070 21-220); test: MSD ECL titration, Fab 148.9 nM, blank 218
T12 construct: Bought Fc chimera; Fc part of the bought chimera not given

[13] = target: T13, rHuman IGF-1 sR (insulin-like growth factor-1 soluble receptor), CF (R&D Systems Cat#391-GR) (human, UniProt P08069 31-932); test: MSD ECL titration, Fab 148.9 nM, blank 218
T13 construct: Bought soluble receptor; also called IGF-R1

[14] = target: T14, rHuman P-Cadherin/Fc Chimera, CF (R&D Systems Cat#861-PC) (human, UniProt P22223 108-654); test: MSD ECL titration, Fab 148.9 nM, blank 218
T14 construct: Bought Fc chimera; Fc part of the bought chimera not given

[15] = target: T15, rHuman Erythropoietin R/Fc Chimera, CF (R&D Systems Cat#963-ER) (human, UniProt P19235 25-250); test: MSD ECL titration, Fab 148.9 nM, blank 218
T15 construct: Bought Fc chimera; also called EPO R/Fc; EPOR; Fc part of the bought chimera not given
T15 sequence: T1 sequence

[16] = target: T16, Recombinant Human DLL4 (R&D Systems Cat#1506-D4/CF) (human, UniProt Q9NR61 27-524); test: MSD ECL titration, Fab 148.9 nM, blank 218
T16 construct: Bought recombinant protein; also called rHuman DLL4; delta-like protein 4

[17] = target: T17, rHuman ErbB2/Fc Chimera, CF (R&D Systems Cat#1129-ER) (human, UniProt P04626 23-652); test: MSD ECL titration, Fab 148.9 nM, blank 218
T17 construct: Bought Fc chimera; also called HER2/neu; Fc part of the bought chimera not given

[18] = target: T18, rHuman EGF R/Fc Chimera, CF (R&D Systems Cat#344-ER) (human, UniProt P00533 25-645); test: MSD ECL titration, Fab 148.9 nM, blank 218
T18 construct: Bought Fc chimera; Fc part of the bought chimera not given

[19] = target: T19, rHuman HGF R/c-MET/Fc Chimera, CF (R&D Systems Cat#358-MT/CF) (human, UniProt P08581 25-932); test: MSD ECL titration, Fab 148.9 nM, blank 218
T19 construct: Bought Fc chimera; also called HGF R/Fc; Fc part of the bought chimera not given
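Also: blank spot per well as comparator with Hit at signal to blank ratio of 4 or more.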

- ECL signal [1]: 2390
- ECL signal [2]: 388
- ECL signal [3]: 428
- ECL signal [4]: 336
- ECL signal [5]: 309
B1: Fab VH1-46_IGHD3-10*01_IGHJ4*01 & B3_IGKJ1*01 (Fab, V domains shown)
VH: QVQLVQSGAEVKKPGASVKVSCKASGYTFTSYYMHWVRQAPGQGLEWMGIINPSGGSTSYAQKFQGRVTMTRDTSTSTVYMELSSLRSEDTAVYYCAREYYYGSGSYYNDYFDYWGQGTLVTVSS
VL: not shown
notes: also called IGHV1-46*01

- ECL signal [6]: 443
- ECL signal [7]: 598
- ECL signal [8]: 392
- ECL signal [9]: 444
- ECL signal [10]: 352
B2: Fab VH6-1_IGHD3-3*01_IGHJ4*01 & V4-3_IGLJ4*01 (Fab, V domains shown)
VH: QVQLQQSGPGLVKPSQTLSLTCAISGDSVSSNSAAWNWIRQSPSRGLEWLGRTYYRSKWYNDYAVSVKSRITINPDTSKNQFSLQLNSVTPEDTAVYYCAREYYDFWSGYYTDYFDYWGQGTLVTVSS
VL: QPVLTQPTSLSASPGASARLTCTLRSGINLGSYRIFWYQQKPESPPRYLLSYYSDSSKHQGSGVPSRFSGSKDASSNAGILVISGLQSEDEADYYCMIWHSSASFVFGGGTQLIIL
notes: Tested as a Fab made in E. coli; also called IGHV6-1*01

- ECL signal [11]: 375
- ECL signal [12]: 348
- ECL signal [13]: 322
- ECL signal [14]: 687
- ECL signal [15]: 373
- ECL signal [16]: 16300
- ECL signal [17]: 247
- ECL signal [18]: 290
- ECL signal [19]: 205
B3: Fab VH1-46_IGHD6-6*01_IGHJ1*01 & L6_IGKJ1*01 (Fab, V domains shown)
VH: QVQLVQSGAEVKKPGASVKVSCKASGYTFTSYYMHWVRQAPGQGLEWMGIINPSGGSTSYAQKFQGRVTMTRDTSTSTVYMELSSLRSEDTAVYYCAREEYSSSSAEYFQHWGQGTLVTVSS
VL: not shown
notes: Expressed in E. coli as Fab: heavy chain with CH1 plus Flag and His tags from Plasmid A, kappa light chain constant region from Plasmid C; also called Fab No. 1
